Laboratory results published in patent publication US20220163515, “PUMILIO DOMAIN-BASED MODULAR PROTEIN ARCHITECTURE FOR RNA BINDING” (Massachusetts Institute of Technology, published 2022).

What was measured:
[1] = target: T1, PumHD wild-type (Pumilio homology domain) (Homo sapiens, UniProt Q14671 Q14671:828-1176); assay: FP; 25 mM Tris-HCl pH 7.5, 0.5 mM EDTA, 50 mM KCl, 0.1 mg/mL BSA; active-fraction corrected; conditions: tags: 6xHis (pBadHisB vector); label: 5'-FAM
Method: (§1) Methods Enzymol 469:287-302; Heyduk T, Ma Y, Tang H, Ebright R H (1996) Fluorescence anisotropy: rapid, quantitative assay for protein-DNA and protein-protein interaction. Methods Enzymol 274:492-503; Dinman J (2013) Biophysical approaches to translational control of gene expression. 317].
(§2) The cognate and non-cognate RNA targets for the purified Pum variant proteins were synthesized with 5′-labeled FAM, 6-carboxyfluorescein (IDT). […] 50 nM cognate RNA was mixed with increasing concentration of the protein (measured by NanoDrop, Thermo Scientific) in the binding buffer (25 mM Tris-HCl pH 7.5, 0.5 mM EDTA, 50 mM KCl, 0.1 mg/mL BSA). The 100 μL samples were assayed, in duplicates, for fluorescence anisotropy using a Cary Eclipse fluorimeter (Varian) with Manual Polarizer Accessory (Varian). […] Fluorescence anisotropy was calculated as a unitless ratio defined as R═(I₌−I_{⊥})/(I₌+2I_{⊥}), where I is the emission intensity parallel (I₌) or perpendicular (I_{⊥}) to the direction of polarization of the excitation source. […] The Kd of each protein to its cognate and non-cognate RNA was subsequently measured, using the protein concentration corrected to the active protein fraction, with constant concentration of RNA. The Kd was calculated from a non-linear fit in IgorPro 6.22 of the anisotropy vs. protein concentration plot to the equation [Qu X, Chaires J B (2000) Analysis of drug-DNA binding data.

[2] = target: T1, PumHD wild-type (Pumilio homology …); assay: FP; no detectable binding, fit did not converge; conditions: tags: 6xHis (pBadHisB vector); label: 5'-FAM
Method: as §1, §2

T1 sequence (Q14671 828-1176, one chain of several): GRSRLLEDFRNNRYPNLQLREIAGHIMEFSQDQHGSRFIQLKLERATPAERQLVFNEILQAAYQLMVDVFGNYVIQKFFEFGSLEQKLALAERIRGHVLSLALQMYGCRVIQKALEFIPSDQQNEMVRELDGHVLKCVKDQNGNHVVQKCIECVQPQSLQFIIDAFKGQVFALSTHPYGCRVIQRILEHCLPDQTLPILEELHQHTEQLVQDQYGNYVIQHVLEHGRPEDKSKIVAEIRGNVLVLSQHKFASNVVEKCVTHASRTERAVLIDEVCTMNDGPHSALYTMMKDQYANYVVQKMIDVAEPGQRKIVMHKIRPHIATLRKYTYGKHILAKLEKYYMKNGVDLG

Binder	Kd [1] [nM]	binding result [2]
CCAGAAUUGUAUAUAUUCG (ssRNA) [wild-type NRE cognate]	0.088	–
ACAUAUAU (ssRNA) [wild-type noncognate]	–	no binding
